According to patent publication US20190112340A1:

Key:
[1] = target: bRSV F 391-2 DS-Cav1 (bovine RSV, strain 391-2) (UniProt P22167); test: Fab binding to purified bRSV F trimer (Octet BLI as in Example 1)
[2] = target: bRSV F 391-2 post-F (bovine RSV, strain 391-2) (UniProt P22167); test: as above
[3] = target: bRSV F 391-2 post-F (bovine RSV, strain 391-2) (UniProt P22167); test: Motavizumab binding to stressed post-F protein as a fraction of the untreated protein (physical stability)
sc8 DS-Cav1 = test: BLI (Octet), F on Ni-NTA tips, Fab in solution
[4] = target: RSV F DS-Cav1 (human RSV subtype A (strain A2)) (UniProt P03420); test: BLI (Octet), F on Ni-NTA tips, Fab in solution
[5] = target: sc9-10 DS-Cav1 A149C, Y458C S46G-E92D-S215P-K465Q (A2); test: BLI (Octet), F on Ni-NTA tips, Fab in solution
sc11 DS-Cav1 = test: BLI (Octet), F on Ni-NTA tips, Fab in solution
[6] = target: RSV F sc9-9 DS-Cav1 (human RSV subtype A (strain A2)) (UniProt P03420); test: BLI (Octet), F on Ni-NTA tips, Fab in solution
sc9-19 DS-Cav1 = test: BLI (Octet), F on Ni-NTA tips, Fab in solution
sc4 DS-Cav1 = test: BLI (Octet), F on Ni-NTA tips, Fab in solution
[7] = target: sc9-10 DS-Cav1 N183GC, N428C S46G-N67I-E92D-S215P-K465Q (A2); test: BLI (Octet), F on Ni-NTA tips, Fab in solution
[8] = target: sc9-10 DS-Cav1 Q98C, Q361C L95M-I221M-R429K (B18537); test: BLI (Octet), F on Ni-NTA tips, Fab in solution
[9] = target: sc9-10 DS-Cav1 A149C, Y458C S46G-N67I-E92D-S215P-K465Q (A2); test: BLI (Octet), F on Ni-NTA tips, Fab in solution
sc10 DS-Cav1 = test: BLI (Octet), F on Ni-NTA tips, Fab in solution
[10] = target: sc9-10 A DS-Cav1 A149C, Y458C; test: BLI (Octet), F on Ni-NTA tips, Fab in solution
[11] = target: RSV F sc9 DS-Cav1 (human RSV subtype A (strain A2)); test: BLI (Octet), F on Ni-NTA tips, Fab in solution
sc9-24 DS-Cav1 = test: BLI (Octet), F on Ni-NTA tips, Fab in solution
[12] = target: RSV F sc9-10 DS-Cav1 (human RSV subtype A (strain A2)); test: BLI (Octet), F on Ni-NTA tips, Fab in solution
sc9 DS-Cav1-105Q = test: BLI (Octet), F on Ni-NTA tips, Fab in solution
[13] = target: sc9-10 DS-Cav1 A149C, Y458C S46G-S215P-K465Q (A2); test: BLI (Octet), F on Ni-NTA tips, Fab in solution
[14] = target: RSV F sc9-42 DS-Cav1 (human RSV subtype A (strain A2)) (UniProt P03420); test: BLI (Octet), F on Ni-NTA tips, Fab in solution
[15] = target: sc9-10 DS-Cav1 N183GC,N428C; test: BLI (Octet), F on Ni-NTA tips, Fab in solution
[16] = target: sc9-10 DS-Cav1 Q98C, Q361C S46G-E92D-L95M-S215P-I217P-I221M-R429K-K465Q (Long (VR26)); test: BLI (Octet), F on Ni-NTA tips, Fab in solution
[17] = target: RSV F sc9-41 DS-Cav1 (human RSV subtype A (strain A2)) (UniProt P03420); test: BLI (Octet), F on Ni-NTA tips, Fab in solution

Substance: Motavizumab Fab
- Kd [1]: 800 pM
- Kd [2]: 600 pM
- fractional antibody reactivity after 10 cycles of freeze-thaw [3]: 1
- fractional antibody reactivity after 50 °C [3]: 1
- fractional antibody reactivity after 70 °C [3]: 1
- fractional antibody reactivity after osmolarity 10 mM [3]: 0.9
- fractional antibody reactivity after osmolarity 3000 mM [3]: 0.6
- fractional antibody reactivity after pH 3.5 [3]: 0.8
- fractional antibody reactivity after pH 10.0 [3]: 1.1
- Kd (sc8 DS-Cav1): < 10 pM
- Kd [4]: 40 pM
- Kd [5]: 600 pM
- Kd (sc11 DS-Cav1): 29300 pM
- Kd [6]: 1000 pM
- Kd (sc9-19 DS-Cav1): 16700 pM
- Kd (sc4 DS-Cav1): 7600 pM
- Kd [7]: 600 pM
- Kd [8]: 200 pM
- Kd [9]: 100 pM
- Kd (sc10 DS-Cav1): 22400 pM
- Kd [10]: 400 pM
- Kd [11]: 13700 pM
- Kd (sc9-24 DS-Cav1): 15100 pM
- Kd [12]: 9700 pM
- Kd (sc9 DS-Cav1-105Q): 16300 pM
- Kd [13]: 400 pM
- Kd [14]: 5900 pM
- Kd [15]: 300 pM
- Kd [16]: 11100 pM
- Kd [17]: 40 pM
